Laboratory results taken from patent US20080221021A1, “Novel Corticotropin-Releasing Factor Receptor 1 (Crfr1) Agonist” (Max-Planck-Gesellschaft Zur Forderung Der, priority 2004, published 2008).

How the values were obtained:
Experiment in all cases: competition binding
Settings in all cases: modification not given
[1] = molecular target: T1, rat CRFBP C-terminally fused with a His6 sequence (rat), P24388
T1 chain: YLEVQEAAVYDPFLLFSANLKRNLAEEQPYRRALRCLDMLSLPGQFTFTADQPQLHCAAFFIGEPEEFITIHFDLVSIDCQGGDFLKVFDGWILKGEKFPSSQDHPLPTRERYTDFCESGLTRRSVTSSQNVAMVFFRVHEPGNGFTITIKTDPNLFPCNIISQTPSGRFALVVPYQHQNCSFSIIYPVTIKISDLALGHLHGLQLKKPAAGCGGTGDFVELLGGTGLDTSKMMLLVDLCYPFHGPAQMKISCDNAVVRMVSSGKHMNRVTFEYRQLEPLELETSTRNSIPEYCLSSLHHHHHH

[2] = molecular target: T2, mouse CRFR2β (mouse), Q60748
T2 chain: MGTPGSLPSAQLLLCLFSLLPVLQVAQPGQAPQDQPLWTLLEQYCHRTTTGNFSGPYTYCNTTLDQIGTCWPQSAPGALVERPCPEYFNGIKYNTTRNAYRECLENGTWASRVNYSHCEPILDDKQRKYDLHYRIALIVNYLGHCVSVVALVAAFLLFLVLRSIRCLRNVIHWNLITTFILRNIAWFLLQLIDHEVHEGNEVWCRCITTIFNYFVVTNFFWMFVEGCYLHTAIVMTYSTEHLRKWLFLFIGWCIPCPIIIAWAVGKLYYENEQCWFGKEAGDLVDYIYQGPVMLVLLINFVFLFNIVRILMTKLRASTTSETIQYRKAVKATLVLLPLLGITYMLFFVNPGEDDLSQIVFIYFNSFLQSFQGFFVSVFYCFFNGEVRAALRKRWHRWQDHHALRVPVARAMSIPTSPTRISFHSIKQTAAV

rat CRFR1α (rat), P35353 = molecular target: T3, rat CRFR1α (rat), P35353
T3 chain: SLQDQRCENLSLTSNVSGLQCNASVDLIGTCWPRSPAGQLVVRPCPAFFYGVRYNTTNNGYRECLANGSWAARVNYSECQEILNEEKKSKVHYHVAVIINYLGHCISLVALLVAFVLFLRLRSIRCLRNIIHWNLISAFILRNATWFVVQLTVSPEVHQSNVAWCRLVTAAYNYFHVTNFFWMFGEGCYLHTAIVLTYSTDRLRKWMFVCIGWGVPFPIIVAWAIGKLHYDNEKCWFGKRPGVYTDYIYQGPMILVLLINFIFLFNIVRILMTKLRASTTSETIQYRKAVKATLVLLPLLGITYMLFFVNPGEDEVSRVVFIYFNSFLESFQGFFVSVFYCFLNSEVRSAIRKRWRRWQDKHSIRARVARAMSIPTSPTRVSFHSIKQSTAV

B1: ovine corticotropin-releasing factor (peptide)
chain: SQEPPISLDLTFHLLREVLEMTKADQLAQQAHSNRKLLDIA
IC50 [1]: 450 nM | IC50 [2]: 160 nM | IC50 (rat CRFR1α (rat), P35353): 1.8 nM
